In patent US20240288453A1 (NATIONAL UNIVERSITY CORPORATION TOKAI NATIONAL HIGHER …, published 2024):

Molecular target: T1, mouse TfR (mouse, UniProt Q62351 89-763, limits assumed)
T1 construct: The assay and the form of the protein are not described
Experiment: not described

T1 sequence (Q62351 89-763 limits assumed): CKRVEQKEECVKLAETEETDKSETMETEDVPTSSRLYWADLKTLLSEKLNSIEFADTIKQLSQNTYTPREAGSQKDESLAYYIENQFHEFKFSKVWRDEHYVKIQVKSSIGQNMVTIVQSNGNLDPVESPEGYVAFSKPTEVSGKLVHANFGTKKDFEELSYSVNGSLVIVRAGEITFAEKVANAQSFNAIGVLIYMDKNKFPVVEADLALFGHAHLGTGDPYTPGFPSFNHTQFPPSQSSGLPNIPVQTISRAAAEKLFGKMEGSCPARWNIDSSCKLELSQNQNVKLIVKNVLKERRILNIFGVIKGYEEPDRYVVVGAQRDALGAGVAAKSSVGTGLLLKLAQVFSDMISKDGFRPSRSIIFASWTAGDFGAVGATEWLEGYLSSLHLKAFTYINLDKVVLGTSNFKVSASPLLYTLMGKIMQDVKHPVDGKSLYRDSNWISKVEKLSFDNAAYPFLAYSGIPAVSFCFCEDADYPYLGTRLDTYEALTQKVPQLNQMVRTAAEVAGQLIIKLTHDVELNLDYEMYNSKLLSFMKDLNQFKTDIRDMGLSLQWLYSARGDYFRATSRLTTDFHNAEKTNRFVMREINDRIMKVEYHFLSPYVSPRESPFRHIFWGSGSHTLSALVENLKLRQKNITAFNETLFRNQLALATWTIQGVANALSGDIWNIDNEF

B1: TfR436 antibody (antibody, V domains shown)
VH: DVQLVQSGGGVVQPGRSLRLSCAASGFPFKSYGMHWVRQAPGKGLEWVAVISYDGSNKYYADSVKGRFTISRDNSKNTLYLQMNSLRGEDTAVYYCARDSNFWSGYYSPVDVWGQGTTVTVSS
VL: NFMLTQPHSVSESPGKTVTISCTRSSGSIASNSVQWYQQRPGSAPITVIYEDTQRPSGVPDRFSGSIDSSSNSASLTISGLQTEDEADYYCQSYDSAYHWVFGGGTKLAVL
notes: The antibody is the one of paragraphs 0090 and 0091 of WO2014/073641 and was detected with an anti-human IgG Fc gamma secondary antibody; also called parent antibody
Does B1 bind?
Result: no binding
